The values below come from patent US10246503B2, “Method of improving the pharmacokinetic profile of a therapeutic polypeptide and the use thereof” (BEIJING ANXINHUAIDE BIOTECH. CO., LTD, priority 2012, dated 2019).

The conditions of data set [1]: in monkeys, literature [6]; cited from earlier work.
The target in a further data set is TNF-alpha. The data set is described as follows: cell-based or functional assay.
In data set [2] the target is human GLP-1 receptor (GLP-1R) (human, UniProt P43220 24-463). The data set is described as follows: cell-based or functional assay.
A short description of data set [3]: analytical gel filtration (Superdex200), apparent molecular weight. Type of data set: physicochemical. An excerpt: In the fusion protein of GLP-1(A8G/G22E)-Fn8-COL18NC1 described in example 4, the flexible unstructured linker between Fn8 and COL18NC1 contains six residues (GGGSGG; SEQ ID NO:89). To generate the flexible un-structured linkers with different lengths, we have synthesized the genes GLP-1(A8G/G22E/R36S)-Fn8-COL18NC1-20, GLP-1(A8G/G22E/R36S)-Fn8-COL18NC1-30, GLP-1(A8G/G22E/R36S)-Fn8-COL18NC1-54 and GLP-1(A8G/G22E/R36S)-Fn8-COL18NC1-60. In these genes, the length of the flexible unstructured polypeptide linker between Fn8 and COL18NC1 contained 20, 30, 54 and 60 residues, respectively. The protein sequences of GLP-1(A8G/G22E/R36S)-Fn8-COL18NC1-20, GLP-1(A8G/G22E/R36S)-Fn8-COL18NC1-30, GLP-1(A8G/G22E/R36S)-Fn8-COL18NC1-54 and GLP-1(A8G/G22E/R36S)-Fn8-COL18NC1-60 are listed as SEQ ID NO:8-11. The synthetic genes of GLP-1(A8G/G22E/R36S)-Fn8-COL18NC1-20, GLP-1(A8G/G22E/R36S)-Fn8-COL18NC1-30, GLP-1(A8G/G22E/R36S)-Fn8-COL18NC1-54 and GLP-1(A8G/G22E/R36S)-Fn8-COL18NC1-60 were grafted to the pET29b by NdeI and XhoI for protein expressions. The expression and purification of these fusion proteins were carried out using similar protocols described in example 3. To estimate the hydrodynamic radius and/or the Rg of the fusion proteins, the purified proteins were loaded on an analytical gel filtration column Superdex200 (GE Healthcare).
Moreover, the flexible unstructured linker between the therapeutic polypeptide and the scaffold protein may adjust the hydrodynamic radius and/or the Rg of the fusion molecule in a tunable manner.
The apparent molecular weights of the fusion proteins were estimated by use of an analytical gel filtration column Superdex-200 (GE Healthcare) mounted on the AKTA FPLC system (GE Healthcare). The purified fusion proteins GLP-1-Fn8, GLP-1-Fn8-COL18NC1, GLP-1(A8G/G22E/R36G)-Fn8-p246-COL18NC1 were loaded on the Superdex200 column. GLP-1-Fn8 is a fusion protein of GLP-1 and Fn8 and contains the first 144 amino acid residues of the fusion protein GLP-1-Fn8-COL18NC1 (SEQ ID NO:2). […] The genuine molecular weights for the fusion proteins GLP-1-Fn8 monomer, GLP-1-Fn8-COL18NC1 trimer, and GLP-1(A8G/G22E/R36G)-Fn8-p246-COL18NC1 trimer were ˜15 Kd, 65 Kd and 123Kd, respectively.
Background: SEC sorts molecules by how far they enter the pores of the column.

Data set [4] in a line: pharmacokinetics in Sprague-Dawley rats, sandwich ELISA (Example 6). Type of data set: in vivo. The settings on record: Sprague-Dawley rat, intraperitoneal, 0.66/0.72/0.75/0.78 mg/kg respectively. The protocol:
To evaluate the pharmacokinetics profiles for the GLP-1 containing fusion proteins generated using the method of the invention, we purified GLP-1(A8G/G22E/R36S)-Fn8-COL18NC1, GLP-1(A8G/G22E/R36S)-Fn8-COL18NC1-20, GLP-1(A8G/G22E/R36S)-Fn8-COL18NC1-30, GLP-1(A8G/G22E/R36S)-Fn8-COL18NC1-54 in PBS buffer, pH 7.2. These fusion proteins were administered on Sprague-Dawley (SD) rats by intraperitoneal injections at the doses of 0.66 mg/kg, 0.72 mg/kg, 0.75 mg/kg, 0.78 mg/kg animal respectively. Blood samples were taken at various time points after injections such as 0-min, 30-min, 1-hour, 2-hour, 4-hour, 8-hour, 24-hour, 48-hour, 3-day, 4-day, 5-day. 7-day, 10-day. The serum samples were centrifuged and kept at −80° C. freezer.
(§1) The GLP-1 concentrations within the serum samples were examined by use of the sandwich ELISA method. The rabbit polyclonal antibody against human Fibronectin at the concentration of 3 ug/ml (Ab299, Abcam company) was coated on ELISA plate for 1 hour at room temperature. Then the plate was washed by PBST buffer three times and the wells were blocked by PBS with 10% FBS for 1 hour at room temperature. The plate was washed three times before the serum samples containing GLP-1 fusion proteins were added. The serum samples could be diluted to 20-10000 folds before use. The ELISA plate was incubated with the serum samples at room temperature for 1 hour and then washed by PBST buffer five times. Then mouse monoclonal against human GLP-1 peptide antibody (sc57510, Santa Cruz Biotechology) at the concentration of 1 ug/ml in PBST buffer was added to the wells. The plate was washed extensively after incubation of 1 hour at room temperature. The secondary antibody, […] HRP conjugated antibody (Beijing ZSGB-Bio company, ZB 5301), was added into the wells and the color was developed using TMB (3,3′,5,5′-tetramethylbenzidine, BD Biosciences, Cat 555214). The plate reader (Bio-Rad microplate reader Model 680) was utilized to obtain the OD450 readings. This method has been calibrated using purified proteins first.
The pharmacokinetics parameters were obtained by using the WinNonlin software (Table 3).

Data set [5] in a line: pharmacokinetics in SD rats, sandwich ELISA (Example 15). The class given is in vivo, SD (Sprague-Dawley) rats. Particulars: SD rats, intraperitoneal, 5 nmol/kg. The protocol:
To evaluate the pharmacokinetics profiles for the GLP-1 containing fusion proteins generated using the method of the invention, we purified the recombinant fusion proteins of GLP-1-Fn8-COL18NC1, GLP1(A8G/G22E/R36G)-Fn8-p246-COL18NC1 and GLP1(A8G/G22E/R36G)-Fn8-p285-COL18NC1 in PBS buffer, pH 7.2. These fusion proteins were administered into SD (Sprague-Dawley) rats by intraperitoneal injections at the dose of 5 nmol/kg for animals, respectively. Blood samples were taken at various time points after injections such as 0-min, 30-min, 1-hour, 2-hour, 4-hour, 6-hour, 8-hour, 24-hour, 48-hour, 3-day, 4-day, 5-day, 6-day and 7-day. The serum samples were centrifuged and kept at −80° C. freezer.
as §1, with “within the samples were” for “within the serum samples were”, “Santa Cruz Biotechnology) at the” for “Santa Cruz Biotechology) at the”
The pharmacokinetics parameters were obtained by using the WinNonlin software (Table 5).
A general note: In an ELISA, binding on a coated surface is turned into a signal by an enzyme label.

Read-outs that look alike come from different tables or passages of the source.

Regarding “GLP-1-Fc fusion protein: GLP-1-Fc fusion protein of literature reference [6] (LY2189265)”, the half life in data set [1] is roughly 51 h.
TNFR2-Fc fusion protein (R&D Systems): in the data set with TNF-alpha, the ED50, block of the apoptosis of L-929 mouse fibroblast cells induced by TNF-alpha (0.25 ng/mL) in the presence of actinomycin D was found to be 5 ng/mL.

B1: GLP-1(A8G/G22E/R36S)-Fn8-COL18NC1-20 (ligand)
chain: HGEGTFTSDVSSYLEEQAAKEFIAWLVKGSGGGGSGGAVPPPTDLRFTNIGPDTMRVTWAPPPSIDLTNFLVRYSPVKNEEDVAELSISPSDNAVVLTNLLPGTEYVVSVSSVYEQHESTPLRGRQKTGGGGGSGGGGSGGGGSGGGGSGASSGVRLWATRQAMLGQVHEVPEGWLIFVAEQEELYVRVQNGFRKVQLEARTPLPRG
For orientation: AUC(0-t) means the area under the concentration-time curve up to a stated or last time point. Low readings indicate low exposure, high ones high exposure. As a reminder, the Cmax is the maximum level reached in the sampled fluid or tissue. In the case of B1, in data set [2], the “EC50 (nM) measured by cAMP assay” value was found to be 1.4 nM. In data set [3], the apparent molecular weight result is reported as “larger apparent molecular weight than their genuine molecular weight”. Further, in data set [4], the “AUC(0-t)” value was 36210 ng·h/mL, the AUCinf stood at 37240 ng·h/mL, the CL was determined as 0.9505 mL/min/kg and the Cmax came to 2260 ng/mL. Besides, in data set [4], the T½ is 6.45 h and the V turned out to be 0.53016 L/kg.

B2: GLP-1-Fn8-COL18NC1: fusion of GLP-1, Fn8 and COL18NC1; SEQ ID NO: 2; abbreviated NC1 in Table 5 (protein)
chain: HAEGTFTSDVSSYLEGQAAKEFIAWLVKGRGGGGSGGGGSAVPPPTDLRFTNIGPDTMRVTWAPPPSIDLTNFLVRYSPVKNEEDVAELSISPSDNAVVLTNLLPGTEYVVSVSSVYEQHESTPLRGRQKTGGGGSGGGASSGVRLWATRQAMLGQVHEVPEGWLIFVAEQEELYVRVQNGFRKVQLEARTPLPRG
As to B2, the apparent molecular weight in data set [3] is reported as roughly 100 Kd. Further, in data set [5], the half life worked out at 5.3 h.
